This note sets out measurements from patent US20250161358A1 (UTC THERAPEUTICS SHANGHAI, published 2025).

T1: CD7-Fc recombinant protein (human, UniProt P09564 26-180)
T1 construct: also called CD7-Fc protein; human CD7-Fc
T1 sequence (looked up): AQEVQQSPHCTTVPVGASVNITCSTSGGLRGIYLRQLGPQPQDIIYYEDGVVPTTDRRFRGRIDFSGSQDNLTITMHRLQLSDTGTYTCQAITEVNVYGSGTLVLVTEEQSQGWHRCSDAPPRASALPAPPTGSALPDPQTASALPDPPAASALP

B1: anti-CD7 scFv-H12 antibody (scFv, V domains shown)
VH: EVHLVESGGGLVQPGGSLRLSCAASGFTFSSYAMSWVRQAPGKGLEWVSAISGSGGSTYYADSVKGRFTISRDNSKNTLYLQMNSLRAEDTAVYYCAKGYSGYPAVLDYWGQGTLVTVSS
VL: QPVLTQPPSASGTPGQRVIISCSGSGSNIGSNTVTWYRQFPGAAPKTLIYNSKLRPSWVPDRFTASKSGTSASLAISGLQSEDEADYYCAAWDDSLNGVVFGGGTKLTVL
notes: Fully human scFv from the phage library
B2: anti-CD7 scFv-H10 antibody (scFv, V domains shown)
VH: QLQLQESGGGLVQPGGSLRLSCAASGFTFSSYAMSWVRQAPGKGLEWVSAISGSGGSTYYADSVKGRFTISRDNSKNTLYLQMNSLRAEDTAVYYCAKGYSGYPAVLDYWGQGTLVTVSS
VL: QSALTQPASVSGSPGQSITISCTGTSSDVGGSKYVSWYQQHPGKAPKLMIYDVSYRPSGVSDRFSGSKSGNTASLTISGLQAEDEADYYCSSYTSNSNLPLFGGGTKVTVL
notes: Fully human scFv from the phage library; also called anti-CD7 CAR-H10
B3: anti-CD7 scFv-H5 antibody (scFv, V domains shown)
VH: QVQLVQSGAEVKKPGESLRISCKGSGYSFTSYWISWVRQMPGKGLEWMGRIDPSDSYTNYSPSFQGHVTISADKSISTAYLQWSSLKASDTAMYYCARHPVTNYYYYGMDVWGQGTTVTVSS
VL: DIRLTQSPSTVSASIGDRVTITCRASQGISNWLTWYQQKPGKAPKLLIYSASTLQSGVPSRFSGSGSGTDFTLTISSLQPEDFATYYCQQANNLRTLTFGGGTKVDIK
notes: as for B1
B4: anti-CD7 scFv-H4 antibody (scFv, V domains shown)
VH: QVQLVQSGGGLVQPGGSLRLSCAASGFTFSTYWMSWVRQAPGKGLEWVANINQDGTEKYYVDSVKGRFTISRDNAKNSLYLQMNSLRAEDTAVYYCAREPGIALDYWGQGTLVTVSS
VL: QSVVTQPPSVSAAPGQKVTISCSGSSSNIGNNYVSWYQQLPGTAPKLLIYDNNKRPSGIPDRFSGSKSGTSATLGITGLQTGDEADYYCGTWDSSLSAGDWVFGGGTKLTVL
notes: as for B1
B5: anti-CD7 scFv-H7 antibody (scFv, V domains shown)
VH: EVQLVESGGGLIQPGGSLRLSCAASGFTVSSNYMSWVRQAPGKGLEWVSVIYSGGSTYYADSVKGRFTISRDNSKNTLYLQMNSLRAEDTAVYYCATDYGELHDAFDIWGQGTTVTVSS
VL: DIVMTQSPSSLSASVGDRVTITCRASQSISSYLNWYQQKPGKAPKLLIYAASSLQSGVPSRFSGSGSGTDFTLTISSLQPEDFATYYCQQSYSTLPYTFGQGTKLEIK
notes: Fully human scFv from the phage library; also called anti-CD7 CAR-H7
B6: anti-CD7 scFv-H9 antibody (scFv, V domains shown)
VH: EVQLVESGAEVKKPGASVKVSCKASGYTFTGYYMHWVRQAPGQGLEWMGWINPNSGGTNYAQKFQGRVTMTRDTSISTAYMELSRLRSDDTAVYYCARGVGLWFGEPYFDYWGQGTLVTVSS
VL: QSVLTQPPSASGAPGERVTISCSGSSSNIGSNYVYWYQQLPGTAPKLLIYNSNQRPSGVPDRFSGSKSGASASLAISGLRSEDEADYYCAAWDDSLSGPVFGGGTKVTVL
notes: Fully human scFv from the phage library; also called anti-CD7 CAR-H9
B7: anti-CD7 scFv-H8 antibody (scFv, V domains shown)
VH: QVQLQESGAGLLKPSETLSLTCAVYGGSISGYYWSWIRQPPGKGLEWIGEINHSGSTNYNPSLKSRVTISVDTSKNQFSLKLSSVTAADTAVYYCARGGGSSGYYLDYWGQGALVTVSS
VL: QSVLTQPPSVSEAPRQRVTISCSGSSSNIGNNAVNWYQQLPGKAPKLLIYYDDLLPSGVSDRFSGSKSGTSASLTISGLQSEDGADYYCASWDDSLNGRVFGGGTKLTVL
notes: as for B1
B8: anti-CD7 scFv-H6 antibody (scFv, V domains shown)
VH: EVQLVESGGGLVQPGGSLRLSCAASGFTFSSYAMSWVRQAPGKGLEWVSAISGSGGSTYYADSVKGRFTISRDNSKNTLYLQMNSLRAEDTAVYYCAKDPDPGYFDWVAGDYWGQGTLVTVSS
VL: QSALTQPPSASGSPGQSVTISCTGTSSDVGGYNYVSWYQQHPGKAPKLMIYEVRKRPSGVPDRFSGSKSGNTASLTVSGLQADDEADYYCSSYAGSNNLGFGGGTKLTVL
notes: as for B1
B9: anti-CD7 scFv-H13 antibody (scFv, V domains shown)
VH: QVQLVQSGAEVKKPGSSVKVSCKASGGTFSSYAISWVRQAPGQGLEWMGGIIPIFGTANYAQKFQGRVTITADESTSTAYMELSSLRSEDTAVYYCARDQGVVPAAEIPYYDFWSGPPFDPWGQGTLVTVSS
VL: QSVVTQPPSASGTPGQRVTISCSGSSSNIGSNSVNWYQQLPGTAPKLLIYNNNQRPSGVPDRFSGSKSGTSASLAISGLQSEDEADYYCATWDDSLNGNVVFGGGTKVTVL
notes: as for B1
B10: anti-CD7 scFv-H15 antibody (scFv, V domains shown)
VH: EVQLVQSGAEVKKPGASVKVSCKVSGYTLTELSMHWVRQAPGKGLEWMGGFDPEDGETIYAQKFQGRVTMTEDTSTDTAYMELSSLRSEDTAVYYCATERASGSYEYYFDYWGQGTLVTVSS
VL: AIQLTQSPSSVSASVGDRVTITCRASQGISSWLAWYQQKPGKAPKLLIYAASSLQSGVPSRFSGSGSGTDFTLTISSLQPEDFATYYCQQANSFPYTFGQGTKVEIK
notes: as for B1
B11: anti-CD7 scFv-H18 antibody (scFv, V domains shown)
VH: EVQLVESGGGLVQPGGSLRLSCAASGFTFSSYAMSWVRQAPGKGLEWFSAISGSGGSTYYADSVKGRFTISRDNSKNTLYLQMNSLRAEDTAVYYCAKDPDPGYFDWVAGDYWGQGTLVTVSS
VL: QSALTQPPSASGSPGQSVTISCTGTSSDVGGYTYVSWYQQHPGKAPKLMIYEVSKRPSGVPDRFSGSKSGNTASLTVSGLQAEDEADYYCSSYAGSNNVVFGGGTELTVL
notes: as for B1

The first assay has as its target T1, CD7-Fc recombinant protein. As to the kind of experiment: flow cytometry, CAR-T cells stained with CD7-Fc protein. For orientation: Flow cytometry measures light scatter and fluorescence of single cells or particles in a stream.
B1: the binding result is given as “binds”.

B2: the binding result is recorded as “binds”. Regarding B3, the binding result is reported as “binds”. In the case of B4, the binding result is listed as “binds”.

Turning to B5, the binding result is reported as “binds”. Still for that read-out and setting: under B6 stands “binds”. Regarding B7, the binding result is given as “binds”. On the same count and under the same terms, under B8 stands “binds”.

The target in a further assay is T1, CD7-Fc recombinant protein. The assay can be described thus: flow cytometry, CAR-T cells stained with CD7-Fc protein (FIG. 4).
As for B9, the binding result was “binds”. The same measure, in the same setting: under B10 stands “binds”; under B11, “binds”.
